In test [1] the target is T1, monkey CD22 on HEK293T-monkey CD22 cells (monkey).
T1 construct: full-length entry expressed on stably transfected HEK293T cells
T1 chain: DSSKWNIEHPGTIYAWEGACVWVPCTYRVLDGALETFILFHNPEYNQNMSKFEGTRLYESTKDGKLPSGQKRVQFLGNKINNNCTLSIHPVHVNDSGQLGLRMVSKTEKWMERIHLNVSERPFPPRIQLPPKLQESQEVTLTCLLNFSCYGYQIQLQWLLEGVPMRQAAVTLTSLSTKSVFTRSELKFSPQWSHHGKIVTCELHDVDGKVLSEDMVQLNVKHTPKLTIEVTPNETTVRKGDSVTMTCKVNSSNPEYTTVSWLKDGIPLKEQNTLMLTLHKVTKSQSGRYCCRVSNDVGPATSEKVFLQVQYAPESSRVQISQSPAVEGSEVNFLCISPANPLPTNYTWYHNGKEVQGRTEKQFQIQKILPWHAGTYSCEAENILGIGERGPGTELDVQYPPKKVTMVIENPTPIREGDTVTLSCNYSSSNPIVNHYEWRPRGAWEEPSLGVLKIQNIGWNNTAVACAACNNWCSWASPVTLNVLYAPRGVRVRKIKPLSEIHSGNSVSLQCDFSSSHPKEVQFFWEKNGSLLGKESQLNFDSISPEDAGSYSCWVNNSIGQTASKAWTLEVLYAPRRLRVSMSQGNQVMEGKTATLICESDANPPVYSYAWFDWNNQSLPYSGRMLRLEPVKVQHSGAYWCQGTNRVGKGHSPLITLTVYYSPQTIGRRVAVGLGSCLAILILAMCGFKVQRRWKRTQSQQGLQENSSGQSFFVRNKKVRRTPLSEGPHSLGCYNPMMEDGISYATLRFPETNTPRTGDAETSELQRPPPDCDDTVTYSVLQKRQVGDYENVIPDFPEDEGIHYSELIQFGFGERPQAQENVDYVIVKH
In words: FACS, HEK293T-monkey CD22 cells. As for the experimental part: (§1) For suspension cell Raji, the medium supernatant was directly centrifuged and discarded, and the cell pellet was washed 2 times with PBS. After counting the cells in the previous step, the cell pellet was resuspended with [PBS+2% (w/w) BSA] blocking solution to 2×10⁶ cells/ml, and added to a 96-well FACS reaction plate at 50 μl/well, and then the chimeric antibody test sample was added at 50 μl/well, and incubated on ice for 2 hours. The mixture was centrifuged and washed 3 times with PBS buffer, Alexa Flour 488-labeled secondary antibody (purchased from Invitrogen, catalog number: A-11013) was added at 50 μl/well, and incubated on ice for 1 hour. The obtained mixture was centrifuged and washed 5 times with PBS, and FACS (FACS Canto™, purchased from BD Company) was used for detection and result analysis. Data analysis was performed by software (CellQuest) to obtain the mean fluorescence density (MFI)of the cells. And then software (GraphPad Prism8) was used for analysis, data fitting, and EC50 value calculation. […] The same method was used to detect the binding of the chimeric antibodies to endogenous CD22-negative cell MoLT4 cells (purchased from ATCC, CRL-1582) and CHO-K1 cells.
(§2) HEK293T-monkey CD22 cells were subjected to FACS detection and data analysis according to the method in Example 5.2.
In general terms: Flow cytometry measures light scatter and fluorescence of single cells or particles in a stream.

Test [2] has as its target T1, monkey CD22 on HEK293T-monkey CD22 cells. In words: FACS, HEK293T-monkey CD22 cells. How it is done:
as §1, §2

Test [3] shares this target. In words: FACS, HEK293T-monkey CD22 cells, EC50 column. How it is done:
as §1, §2

For test [4], the target named is T2, monkey CD22 protein (ACROBiosystems, catalog number SI2-R52Ha) (monkey, UniProt F6W485 20-688).
T2 construct: commercial protein; also called monkey CD22-ECD; monkey CD22-ECD-His
T2 sequence: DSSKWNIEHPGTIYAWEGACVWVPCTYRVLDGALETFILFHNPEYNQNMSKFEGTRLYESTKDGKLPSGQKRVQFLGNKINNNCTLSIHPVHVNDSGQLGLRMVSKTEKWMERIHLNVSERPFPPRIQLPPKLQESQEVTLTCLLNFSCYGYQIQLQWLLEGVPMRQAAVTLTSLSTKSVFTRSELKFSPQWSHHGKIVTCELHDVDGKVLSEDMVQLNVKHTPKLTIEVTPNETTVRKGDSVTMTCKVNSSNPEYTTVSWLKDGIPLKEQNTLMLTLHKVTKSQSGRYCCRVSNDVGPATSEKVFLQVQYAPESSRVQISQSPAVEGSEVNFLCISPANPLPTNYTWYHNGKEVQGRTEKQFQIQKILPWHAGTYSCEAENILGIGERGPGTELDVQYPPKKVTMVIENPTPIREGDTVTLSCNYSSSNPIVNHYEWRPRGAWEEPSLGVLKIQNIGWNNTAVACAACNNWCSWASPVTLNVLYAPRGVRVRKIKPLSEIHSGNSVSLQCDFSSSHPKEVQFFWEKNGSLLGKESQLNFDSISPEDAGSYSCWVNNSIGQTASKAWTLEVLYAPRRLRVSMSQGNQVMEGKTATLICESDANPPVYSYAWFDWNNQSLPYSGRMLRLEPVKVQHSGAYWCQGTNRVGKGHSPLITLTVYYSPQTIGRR
In words: ELISA, coated monkey CD22 protein, antibody 10 nM. As for the experimental part:
(§3) In order to detect the binding activity of CD22 human-murine chimeric antibodies to CD22 protein, the purified human CD22-ECD-His protein obtained in Example 2 was diluted with PBS to a final concentration of 2 μg/mL, and then added to 96-well ELISA plate at 100 μl/well. The plate was sealed with plastic film and incubated overnight at 4° C., the plate was washed 2 times with PBS the next day, and then a blocking solution [PBS+2% (w/w) BSA] was added for blocking at room temperature for 2 hours. […] After incubation at 37° C. for 2 hours, the plate was washed 3 times with PBS. HRP (horseradish peroxidase)-labeled secondary antibody (purchased from Sigma, catalog number: A0170) was added, and incubated at 37° C. for 2 hours, and the plate was washed 5 times with PBS. TMB substrate was added at 50 μl/well, and incubated at room temperature for 30 minutes, then a stop solution (1.0 N HCl) was added at 50 μl/well.
(§4) In order to detect the species cross-binding activity of the chimeric antibodies, an ELISA plate was coated with commercial murine CD22 protein (ACROBiosystems, catalog number: SI2-M52Ha) and monkey CD22 protein (ACROBiosystems, catalog number: SI2-R52Ha), respectively, and the ELISA detection was performed according to the method in Example 5.1.
On the technique in general: In an ELISA, binding on a coated surface is turned into a signal by an enzyme label.

For test [5], the target named is T2, monkey CD22 protein (ACROBiosystems, …). In words: ELISA, coated monkey CD22 protein, antibody 0.1 nM. How it is done: as §3, §4
Test [6] has the same target. In words: ELISA, coated monkey CD22 protein, antibody 100 nM. As for the experimental part: as §3, §4
Test [7] shares this target. In words: ELISA, coated monkey CD22 protein, antibody 0.01 nM. How it is done:
as §3, §4

The target is the same in test [8]. In words: ELISA, coated monkey CD22 protein, antibody 0.001 nM. As for the experimental part: as §3, §4
Test [9] shares this target. In words: ELISA, coated monkey CD22 protein, antibody 0.0001 nM. As for the experimental part: as §3, §4
Test [10] has the same target. In words: ELISA, coated monkey CD22 protein, antibody 0.00001 nM. How it is done:
as §3, §4

Like-named read-outs stand apart in the source and are kept apart here.

B1: m971-hIgG1 (antibody, V domains shown)
VH: QVQLQQSGPGLVKPSQTLSLTCAISGDSVSSNSAAWNWIRQSPSRGLEWLGRTYYRSKWYNDYAVSVKSRITINPDTSKNQFSLQLNSVTPEDTAVYYCAREVTGDLEDAFDIWGQGTMVTVSS
VL: DIQMTQSPSSLSASVGDRVTITCRASQTIWSYLNWYQQRPGKAPNLLIYAASSLQSGVPSRFSGRGSGTDFTLTISSLQAEDFATYYCQQSYSIPQTFGQGTKLEIKR
notes: control anti-CD22 antibody; variable regions from US 8,591,889 on human IgG1 constant regions
With B1, the figures for the “Maximum mean fluorescence intensity” value in test [1] and in [2] were 49 MFI and 104 MFI, respectively. In addition, the binding result in [3] is reported as “no binding”. The OD450 in test [4] was determined as 0.09 OD450; in [5], 0.07 OD450; in test [6] it was 0.12 OD450; in [7], 0.07 OD450; in [8] it was 0.06 OD450; in [9], 0.07 OD450. Besides, in test [10], the OD450 was 0.07 OD450.
